Source: patent US20240272170A1 (QUANTUM SI, published 2024)
Numbering of substitutions follows the chain as printed. No end group written: not given here. *: point of attachment. FITC = O=C1OC2(c3ccc(O)cc3Oc3cc(O)ccc32)c2ccc(NC(=S)*)cc21

Assays:
[1] = target: T1, labeled peptide X…-FITC with N-terminal valine (FITC on the C-terminal Lys); experiment: fluorescence polarization; text of paragraph 337
T1 construct: also called VA peptide; valine peptide

VA peptide [2] = target: T2, VA peptide; experiment: BLI (Octet), peptide on sensor, purified protein in solution; second row for PS829
T2 construct: The peptide was coated on the Octet sensor; also called peptide with N-terminal valine and penultimate alanine
Text: (§1) In the high-throughput assay, Octet sensors are coated with the peptide of interest and dipped in buffer containing the purified protein. An approximation of relative binding can be obtained by comparing the response after 200 seconds for each protein. Each protein has approximately the same molecular mass and is used at the same concentration, so ranking the proteins by response level in this assay gives an approximation of which proteins have improved binding. Studying the on and off-rate can also give insight into the mechanism of binding.

LA peptide [3] = target: T3, LA peptide; experiment: as above
T3 construct: The peptide was coated on the Octet sensor; also called peptide with N-terminal leucine and penultimate alanine
Text: as §1

AA peptide [4] = target: T4, AA peptide; experiment: as above
T4 construct: The peptide was coated on the Octet sensor; also called peptide with N-terminal alanine and penultimate alanine
Text: as §1

VA peptide [5] = target: T2, VA peptide; experiment: BLI (Octet), peptide on sensor, purified protein in solution
Text: as §1

LA peptide [6] = target: T3, LA peptide; experiment: as above
Text: as §1

AA peptide [7] = target: T4, AA peptide; experiment: as above
Text: as §1

VA peptide [8] = target: T2, VA peptide; experiment: BLI (Octet), peptide on sensor, purified protein in solution; second row for PS833
Text: as §1

LA peptide [9] = target: T3, LA peptide; experiment: as above
Text: as §1

AA peptide [10] = target: T4, AA peptide; experiment: as above
Text: as §1

[11] = target: T5, MA peptide (Octet assay of PS557 variants); experiment: Octet (BLI), peptide on sensor, response after 200 s association
T5 construct: Peptide coated on the Octet sensor
Text: (§2) In the high-throughput assay, Octet sensors are coated with the peptide of interest and dipped in buffer containing the purified protein. […] Studying the on and off-rate can also give insight into the mechanism of binding.

[12] = target: T6, VA peptide (Octet assay of PS557 variants); experiment: as above
T6 construct: Peptide coated on the Octet sensor
Text: as §2

[13] = target: T7, IA peptide (Octet assay of PS557 variants); experiment: as above
T7 construct: Peptide coated on the Octet sensor
Text: as §2

[14] = target: T8, LA peptide (Octet assay of PS557 variants); experiment: as above
T8 construct: Peptide coated on the Octet sensor
Text: as §2

[15] = target: T9, AA peptide (Octet assay of PS557 variants); experiment: as above
T9 construct: Peptide coated on the Octet sensor
Text: as §2

[16] = target: T10, FA peptide (Octet assay of PS557 variants); experiment: as above
T10 construct: Peptide coated on the Octet sensor
Text: as §2

[17] = target: T11, YA peptide (Octet assay of PS557 variants); experiment: as above
T11 construct: Peptide coated on the Octet sensor
Text: as §1

[18] = target: T12, WA peptide (Octet assay of PS557 variants); experiment: as above
T12 construct: Peptide coated on the Octet sensor
Text: as §1

[19] = target: T5, MA peptide (Octet assay of PS557 …); experiment: as above; remark: listed apart in the source
Text: as §1

[20] = target: T7, IA peptide (Octet assay of PS557 …); experiment: as above; remark: listed apart in the source
Text: as §1

[21] = target: T10, FA peptide (Octet assay of PS557 …); experiment: as above; remark: listed apart in the source
Text: as §1

[22] = target: T13, LA Peptide (fluorescence polarization); experiment: fluorescence polarization, FITC peptide titrated with protein
T13 peptide: LAKLDEESILKQK(FITC)

[23] = target: T14, AA Peptide (fluorescence polarization), AAKLDEESILKQ{LYS(FITC)}; experiment: as above
T14 peptide: AAKLDEESILKQK(FITC)

[24] = target: T15, IA Peptide (fluorescence polarization); experiment: as above
T15 peptide: IAKLDEESILKQK(FITC)

[25] = target: T11, YA peptide (Octet assay of PS557 …); experiment: Octet (BLI), peptide on sensor, response after 200 s association; second PS833 row
Text: as §1

[26] = target: T12, WA peptide (Octet assay of PS557 …); experiment: as above
Text: as §1

[27] = target: T5, MA peptide (Octet assay of PS557 …); experiment: as above
Text: as §1

[28] = target: T7, IA peptide (Octet assay of PS557 …); experiment: as above
Text: as §1

[29] = target: T10, FA peptide (Octet assay of PS557 …); experiment: as above
Text: as §1

[30] = target: T16, MA Peptide (fluorescence polarization); experiment: fluorescence polarization, FITC peptide titrated with protein
T16 peptide: MAKLDEESILKQK(FITC)

[31] = target: VA Peptide (fluorescence polarization) (FITC on the C-terminal lysine); experiment: as above
[32] = target: T17, QP1165 after cleavage to N-terminal arginine (RVWK); experiment: on-chip dynamic sequencing of QP1165, PS1875 run, trace Aperture=295010
T17 peptide: RVWK

[33] = target: T17, QP1165 after cleavage to N-terminal …; experiment: on-chip dynamic sequencing of QP1165, PS2123 run, trace Aperture=1168773
[34] = target: T17, QP1165 after cleavage to N-terminal …; experiment: on-chip dynamic sequencing of QP1165, 500 nM PS2123 plus five recognizers, 62511 alignments
[35] = target: T17, QP1165 after cleavage to N-terminal …; experiment: on-chip dynamic sequencing of QP1165, PS2121 run, trace Aperture=740473
[36] = target: T17, QP1165 after cleavage to N-terminal …; experiment: on-chip dynamic sequencing of QP1165, PS2132 run, trace Aperture=376215
[37] = target: T17, QP1165 after cleavage to N-terminal …; experiment: on-chip dynamic sequencing of QP1165, 500 nM PS1875 plus five recognizers, 11565 alignments
Procedure: (§3) The semiconductor chip was placed in the sequencing device and a chip check was performed to test electronic circuit function and to optimize laser coupling alignment. The chip was then removed from the device socket and the chip was washed twice with 50 μL of 70% isopropanol, followed by four washes with 30 μL of wash buffer (50 mM MOPS pH 8.0, 60 mM potassium acetate, 50 mM glucose, 20 mM magnesium acetate, and surfactant mix) through a flow cell attached to the chip. A second chip check was then performed. The laser was then blocked via an integrated software-controlled shutter, peptide complex was added to a final concentration of 1-10 nM and mixed thoroughly, and the chip was incubated for 15 min. The chip was then washed six times with wash buffer, followed by addition of an imaging solution (wash buffer with 5 mM Trolox and an oxygen scavenging system). The laser was unblocked and the occupancy percentage (target 10-30%, Poisson distributed) was recorded by acquiring a photobleaching signal from a fluorophore attached to the peptide complex during 5 min of laser illumination. […] Data was recorded for 15 min. The laser was then blocked briefly and aminopeptidases were added to the sequencing reaction via the flow cell and mixed thoroughly (final concentration 2-8 μM PhTET2 and/or 20-80 μM PhTET3, as indicated according to the experiment). The laser was then unblocked, and data was recorded for 10 hours. For all runs, 30 μL of mineral oil was added to fluid reservoirs at each port of the flow cell to prevent evaporation during the run.

[38] = target: T17, QP1165 after cleavage to N-terminal …; experiment: on-chip dynamic sequencing of QP1165, PS1875 run, trace Aperture=1353995
[39] = target: T17, QP1165 after cleavage to N-terminal …; experiment: on-chip dynamic sequencing of QP1165, 500 nM PS1875 plus five recognizers, 7305 alignments
[40] = target: T17, QP1165 after cleavage to N-terminal …; experiment: on-chip dynamic sequencing of QP1165, PS2121 run, trace Aperture=1683362
[41] = target: T17, QP1165 after cleavage to N-terminal …; experiment: on-chip dynamic sequencing of QP1165, PS1875 run, trace Aperture=340501
[42] = target: T17, QP1165 after cleavage to N-terminal …; experiment: on-chip dynamic sequencing of QP1165, PS1875 run, trace Aperture=1377116
Procedure: as §3

[43] = target: T17, QP1165 after cleavage to N-terminal …; experiment: on-chip dynamic sequencing of QP1165, 500 nM PS1875 plus five recognizers, 3369 alignments
[44] = target: T17, QP1165 after cleavage to N-terminal …; experiment: on-chip dynamic sequencing of QP1165, PS1875 run, trace Aperture=430641
[45] = target: T17, QP1165 after cleavage to N-terminal …; experiment: on-chip dynamic sequencing of QP1165, PS2132 run, trace Aperture=1826247
[46] = target: T17, QP1165 after cleavage to N-terminal …; experiment: on-chip dynamic sequencing of QP1165, 500 nM PS2132 plus five recognizers, 36192 alignments
[47] = target: T17, QP1165 after cleavage to N-terminal …; experiment: on-chip dynamic sequencing of QP1165, 500 nM PS2121 plus five recognizers, 15527 alignments

B1: PS557 (other)
chain: MPTAASATESAIEDTPAPARPEVDGRTKPKRQPRYHVVLWNDDDHTYQYVVVMLQSLFGHPPERGYRLAKEVDTQGRVIVLTTTREHAELKRDQIHAFGYDRLLARSKGSMKASIEAEE
notes: tag of the purified construct not specified; also called wild-type protein; WT
Kd [1]: 1170 nM

B2: PS829 (designed binder)
chain: B1 chain with N41D, P62R, V72M, Q75L
notes: Variant of PS557
Octet response after 200 sec association (VA peptide [2]): 11.3 nm
Octet response after 200 sec association (LA peptide [3]): 10.9 nm
Octet response after 200 sec association (AA peptide [4]): 4.5 nm
Octet response after 200 sec association (VA peptide [5]): 9.5 nm
Octet response after 200 sec association (LA peptide [6]): 8.5 nm
Octet response after 200 sec association (AA peptide [7]): 2.5 nm

B3: PS833 (designed binder)
chain: B1 chain with E22V, N41D, V72M
notes: Variant of PS557
Octet response after 200 sec association (VA peptide [8]): 10.4 nm
Octet response after 200 sec association (LA peptide [9]): 12.4 nm
Octet response after 200 sec association (AA peptide [10]): 0.849 nm
Octet response after 200 sec association (VA peptide [5]): 8.6 nm
Octet response after 200 sec association (LA peptide [6]): 10.7 nm
Octet response after 200 sec association (AA peptide [7]): 1 nm

B4: PS557 (other)
chain: B1 chain
notes: Natural ClpS parent protein; also called WT; wild-type protein
Octet response [11]: 1.95 nm
Octet response [12]: 4.8 nm
Octet response [13]: 7.2 nm
Octet response [14]: 7.16 nm
Octet response [15]: 0.612 nm
Octet response [16]: 0.634 nm
Octet response [17]: 0.0431 nm
Octet response [18]: 0.0049 nm
Octet response [19]: 1.68 nm
Octet response [20]: 8.79 nm
Octet response [21]: 0.0096 nm
Kd [22]: 52 nM
Kd [23]: 10 µM
Kd [24]: 289 nM

B5: PS833 (designed binder)
chain: B1 chain with E22V, N41D, V72M
notes: Variant of PS557
Octet response [25]: 0.109 nm
Octet response [26]: 0.0006 nm
Octet response [27]: 7.01 nm
Octet response [28]: 10.8 nm
Octet response [29]: 0.0889 nm
Octet response [17]: 0.117 nm
Octet response [18]: 0.00561 nm
Octet response [19]: 5.11 nm
Octet response [20]: 9.26 nm
Octet response [21]: 0.0509 nm
Kd [30]: 1040 nM
Kd [31]: 312 nM
Kd [23]: 7.08 µM

B6: PS1220 (designed binder)
single polypeptide, two PS1122 units in tandem: MHSKFSHAGRICGAKFKVGEPIYRCKECSFDDTCVLCVNCFNPKDHLGHHVYTTICTEFNNGECDCGDKTAWNHTLFCKAEEGSAGSAAGSGEFMHSKFSHAGRICGAKFKVGEPIYRCKECSFDDTCVLCVNCFNPKDHLGHHVYTTICTEFNNGECDCGDKTAWNHTLFCKAEEG
notes: also called PS1220 (R); PS1220 (4-CY3B)
PD of a recognition segment in an example trace [32]: 0.3 s
PD of a recognition segment in an example trace [33]: 0.3 s
IPD (interpulse duration) [34]: 9.74 s
PD (pulse duration) [34]: 0.4 s
PD of a recognition segment in an example trace [35]: 0.71 s
PD of a recognition segment in an example trace [36]: 0.94 s
IPD (interpulse duration) [37]: 10.6 s
PD (pulse duration) [37]: 0.37 s
PD of a recognition segment in an example trace [38]: 0.34 s
IPD (interpulse duration) [39]: 10.5 s
PD (pulse duration) [39]: 0.43 s
PD of a recognition segment in an example trace [40]: 0.45 s
PD of a recognition segment in an example trace [41]: 0.31 s
PD of a recognition segment in an example trace [42]: 0.4 s
IPD (interpulse duration) [43]: 9.99 s
PD (pulse duration) [43]: 0.42 s
PD of a recognition segment in an example trace [44]: 0.31 s
PD of a recognition segment in an example trace [45]: 0.27 s
IPD (interpulse duration) [46]: 11.1 s
PD (pulse duration) [46]: 0.44 s
IPD (interpulse duration) [47]: 11.9 s
PD (pulse duration) [47]: 0.46 s
